Test results as given in patent US20050084840A1, “Method for screening drug for improving insulin resistance” (priority 2002, published 2005).

Target: GAL-PPARγ: chimera protein of the DNA binding region (1-147 amino acids) of yeast Gal4 with the ligand binding region of human PPARγ2 fused to its C terminus, expressed in COS-1 cells (yeast; human) (UniProt P04386)
Experiment: cell-based or functional assay

B1: full-length AOP2 with vector-derived V5 epitope and HIS6 tag at the C terminus, expressed from pcDNA-AOP2 in COS-1 cells (protein, not shown: small tags and cut ends)
chain: PGGLLLGDVAPNFEANTTVGRIRFHDFLGDSWGILFSHPRDFTPVCTTELGRAAKLAPEFAKRNVKLIALSIDSVEDHLAWSKDINAYNCEEPTEKLPFPIIDDRNRELAILLGMLDPAEKDEKGMPVTARVVFVFGPDKKLKLSILYPATTGRNFDEILRVVISLQLTAEKRVATPVDWKDGDSVMVLPTIPEEEAKKLFPKGVFTKELPSGKKYLRYTPQP
Question: What does the source list for B1?
Answer: promotion of the transcription induction ability of PPARγ in the presence of AOP2 (corrected luciferase activity, COS-1), GI-262570 at 1.0 µM and 10 µM: 3.5 fold; promotion of the transcription induction ability of PPARγ in the presence of AOP2 (corrected luciferase activity, COS-1), GL-100085 at 1.0 to 10 µM: 4 to 6 fold; promotion of the transcription induction ability of PPARγ in the presence of AOP2 (corrected luciferase activity, COS-1), GW7282 at 1.0 to 10 µM: 4 to 5 fold
